No end group written: not given here.
Key:
[1] = target: C4-2; test: flow cytometry; C4-2 cells; apparent Kd
[2] = target: C4-2 cells; test: flow cytometry; C4-2 cells; apparent Kd
[3] = target: C4-2 cells; test: flow
[4] = target: C4-2; test: flow

| Binder | Kd [1] [µM] | other results |
| --- | --- | --- |
| YVNSHSILGYTG (also: FAM label, position not given here) [YVN] | 9.79 | – |
| SGYQTFYWPGPI (also: FAM label, position not given here) [Scrambled GTI] | – | Kd [2]: > 100 µM |
| GTIQPYPFSWGY (also: FAM (fluorescein amidite) label, position not given here) [GTI] | – | Kd [3]: 8.91 µM; Kd [4]: 8.91 µM |
| TGHLYPTRMEIQ (also: FAM label, position not given here) [TGH] | 44.1 | – |
| HSDNHYRPADKL (also: FAM label, position not given here) [HSD] | 30.8 | – |

Reference: patent US20170240596A1 (published 2017)
